In US20250270332A1 (ANTLERA THERAPEUTICS, published 2025):
Substitutions are numbered along the chain they refer to.

Target: T1, FZD4 recombinant extracellular domain, Fc fusion (FZD-Fc) (UniProt Q9ULV1 37-180)
T1 construct: extracellular domain; also called FZD4 ECD; not shown: Fc part of the FZD-Fc protein
T1 sequence (looked up): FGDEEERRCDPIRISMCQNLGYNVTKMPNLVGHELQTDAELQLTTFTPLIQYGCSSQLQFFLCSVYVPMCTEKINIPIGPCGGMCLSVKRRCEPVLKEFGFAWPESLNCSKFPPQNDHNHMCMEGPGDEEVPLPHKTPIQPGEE
Assay: BLI (Octet), FZD-Fc captured on AHQ sensors, agonist in solution; apparent affinity

B1: FZD4 Agonist ANT21 (bispecific antibody)
heavy 1: EVQLVESGGGLVQPGGSLRLSCAASGFNFSSSSIHWVRQAPGKGLEWVASISSSYGYTYYADSVKGRFTISADTSKNTAYLQMNSLRAEDTAVYYCARGGSGVSHYGSVYYSWWALDYWGQGTLVTVSSGGGGSDIQMTQSPSSLSASVGDRVTITCRASQSVSSAVAWYQQKPGKAPKLLIYSASSLYSGVPSRFSGSRSGTDFTLTISSLQPEDFATYYCQQYWAYYSPITFGQGTKVEIKGGGGSGGGGSEPKTSDKTHTCPPCPAPELLGGPSVFLFPPKPKDTLMISRTPEVTCVVVAVSHEDPEVKFNWYVDGVEVHNAKTKPREEQYGSTYRVVSVLTVLHQDWLNGKEYKCKVSNKALPAPIEKTISKAKGQPREPMVFDLPPSREEMTKNQVSLWCMVKGFYPSDIAVEWESNGQPENNYKTTPPVLDSDGSFFLYSKLTVDKSRWQQGNVFSCSVMHEALHNHYTQKSLSLSPGKGGGSGGGSGGGSGGGSGSTGEVQLVESGGGLVQPGGSLRLSCAASGFTLSSYSMHWVRQAPGKGLEWVAYISSYYGYTYYADSVKGRFTISADTSKNTAYLQMNSLRAEDTAVYYCARPAPGHWGFDYWGQGTLVTVSSASTKGPSVFPLAPSSKSTSGGTAALGCLVKDYFPEPVTVSWNSGALTSGVHTFPAVLQSSGLYSLSSVVTVPSSSLGTQTYICNVNHKPSNTKVDKKVEPKSCDKTHT
heavy 2: EVQLVESGGGLVQPGGSLRLSCAASGFNFSSSSIHWVRQAPGKGLEWVASISSSYGYTYYADSVKGRFTISADTSKNTAYLQMNSLRAEDTAVYYCARSWAMDYWGQGTLVTVSSGGGGSDIQMTQSPSSLSASVGDRVTITCRASQSVSSAVAWYQQKPGKAPKLLIYSASSLYSGVPSRFSGSRSGTDFTLTISSLQPEDFATYYCQQSSYSLITFGQGTKVEIKGGGGSGGGGSEPKSSDKTHTCPPCPAPELLGGPSVFLFPPKPKDTLMISRTPEVTCVVVAVSHEDPEVKFNWYVDGVEVHNAKTKPREEQYGSTYRVVSVLTVLHQDWLNGKEYKCKVSNKALPAPIEKTISKAKGQPREPQVYTLPPIRELMTSNQVSLSCAVKGFYPSDIAVEWESNGQPENNYKTTPPVLDSDGSFFLVSKLTVDKSRWQQGNVFSCSVMHEALHNHYTQKSLSLSPGKGGGSGGGSGGGSGGGSGSTGEVQLVESGGGLVQPGGSLRLSCAASGFTLSSYSMHWVRQAPGKGLEWVAYISSYYGYTYYADSVKGRFTISADTSKNTAYLQMNSLRAEDTAVYYCARPAPGHWGFDYWGQGTLVTVSSASTKGPSVFPLAPSSKSTSGGTAALGCLVKDYFPEPVTVSWNSGALTSGVHTFPAVLQSSGLYSLSSVVTVPSSSLGTQTYICNVNHKPSNTKVDKKVEPKSCDKTHT
light: DIQMTQSPSSLSASVGDRVTITCRASQSVSSAVAWYQQKPGKAPKLLIYSASSLYSGVPSRFSGSRSGTDFTLTISSLQPEDFATYYCQQWYYAPITFGQGTKVEIKRTVAAPSVFIFPPSDEQLKSGTASVVCLLNNFYPREAKVQWKVDNALQSGNSQESVTEQDSKDSTYSLSSTLTLSKADYEKHKVYACEVTHQGLSSPVTKSFNRGEC
notes: Diabody-Fc-Fab format
Kd: 2.2 nM

B2: FZD4 Agonist ANT39 (bispecific antibody, human IgG1, kappa, N297G)
heavy 1: EVQLVESGGGLVQPGGSLRLSCAASGFDFTAYAMHWVRQAPGKGLEWVASIYPSGGYTAYADSVKGRFTISADTSKNTAYLQMNSLRAEDTAVYYCARRSYYFALDYWGQGTLVTVSSGGGGSDIQMTQSPSSLSASVGDRVTITCRASQSVSSAVAWYQQKPGKAPKLLIYSASSLYSGVPSRFSGSRSGTDFTLTISSLQPEDFATYYCQQYWAYYSPITFGQGTKVEIKGGGGSGGGGSEPKTSDKTHTCPPCPAPELLGGPSVFLFPPKPKDTLMISRTPEVTCVVVAVSHEDPEVKFNWYVDGVEVHNAKTKPREEQYGSTYRVVSVLTVLHQDWLNGKEYKCKVSNKALPAPIEKTISKAKGQPREPMVFDLPPSREEMTKNQVSLWCMVKGFYPSDIAVEWESNGQPENNYKTTPPVLDSDGSFFLYSKLTVDKSRWQQGNVFSCSVMHEALHNHYTQKSLSLSPGKGGGSGGGSGGGSGGGSGSTGEVQLVESGGGLVQPGGSLRLSCAASGFTLSSYSMHWVRQAPGKGLEWVAYISSYDSITDYADSVKGRFTISADTSKNTAYLQMNSLRAEDTAVYYCARPAVGHMAFDYWGQGTLVTVSSASTKGPSVFPLAPSSKSTSGGTAALGCLVKDYFPEPVTVSWNSGALTSGVHTFPAVLQSSGLYSLSSVVTVPSSSLGTQTYICNVNHKPSNTKVDKKVEPKSCDKTHT
heavy 2: EVQLVESGGGLVQPGGSLRLSCAASGFDFSSSSIHWVRQAPGKGLEWVASISSSYGYTYYADSVKGRFTISADTSKNTAYLQMNSLRAEDTAVYYCARSWAMDYWGQGTLVTVSSGGGGSDIQMTQSPSSLSASVGDRVTITCRASQSVSSAVAWYQQKPGKAPKLLIYSASDLYSGVPSRFSGSRSGTDFTLTISSLQPEDFATYYCQQYAGAGLITFGQGTKVEIKGGGGSGGGGSEPKSSDKTHTCPPCPAPELLGGPSVFLFPPKPKDTLMISRTPEVTCVVVAVSHEDPEVKFNWYVDGVEVHNAKTKPREEQYGSTYRVVSVLTVLHQDWLNGKEYKCKVSNKALPAPIEKTISKAKGQPREPQVYTLPPIRELMTSNQVSLSCAVKGFYPSDIAVEWESNGQPENNYKTTPPVLDSDGSFFLVSKLTVDKSRWQQGNVFSCSVMHEALHNHYTQKSLSLSPGKGGGSGGGSGGGSGGGSGSTGEVQLVESGGGLVQPGGSLRLSCAASGFTLSSYSMHWVRQAPGKGLEWVAYISSYDSITDYADSVKGRFTISADTSKNTAYLQMNSLRAEDTAVYYCARPAVGHMAFDYWGQGTLVTVSSASTKGPSVFPLAPSSKSTSGGTAALGCLVKDYFPEPVTVSWNSGALTSGVHTFPAVLQSSGLYSLSSVVTVPSSSLGTQTYICNVNHKPSNTKVDKKVEPKSCDKTHT
light: B1 light with Y93N
notes: Diabody-Fc-Fab format, DANG Fc
Kd: 0.3 nM
